The assay concerns the target ELP-substrate fusion M(GVGVP)60…. Nature of the assay: cell-based or functional assay.

Bounds are passed on as bounds.

Sequence of ELP-substrate fusion M(GVGVP)60… (chain, as listed by the source): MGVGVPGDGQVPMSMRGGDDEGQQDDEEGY

Substance “Human MMP-1 catalytic domain (recombinant, produced in E. coli, 19.9 kDa) (from UniProt P03956 100-269) (enzyme)” returned an aggregation time (optical density versus time), 50 ng/mL MMP-1, without inhibitor of under 50 min.

For the origin of these results see patent US20160348147A1, “SYSTEMS AND DEVICES FOR PROTEASE DETECTION BASED ON ENGINEERED POLYMERS AND BIOPOLYMERS AND METHODS OF USE” (DUKE UNIVERSITY, priority 2014, published 2016).
